Tested on: RAD51 wild type (Homo sapiens)
Experiment: EMSA
Conditions: 1 mM ATP, 2 mM Ca2+; saturated at 0.8 uM; EMSA: 50 mM Tris-HCl pH 7.5, 100 mM NaCl, 2 mM CaCl2, 1 mM ATP, 1 mM DTT, 5 nM DNA, 5 min at 37 C; 0.8% agarose in 1x TB (dsDNA) or 5% native PAGE in 0.5x TB …

Question: How did the K half turn out when ds-66 bp-AF532 was run?
Answer: Its K half is 300 nM.
